From patent US20100143262A1, “Method for Identifying Allergenic Proteins And Peptides” (priority 2008, published 2010)

B1: beta-casein (protein, UniProt P02666 16-224, looked up)
Beta-casein: RELEELNVPGEIVESLSSSEESITRINKKIEKFQSEEQQQTEDELQDKIHPFAQTQSLVYPFPGPIPNSLPQNIPPLTQTPVVVPPFLQPEVMGVSKVKEAMAPKHKEMPFPKYPVEPFTESQSLTLTDVENLHLPLPLLQSWMHQPHQPLPPTVMFPPQSVLSLSQSKVLPVPQKAVPYPQRDMPIQAFLLYQEPVLGPVRGPFPIIV
notes: natural purified protein
B2: beta-lactoglobulin variant A (protein)
chain: LIVTQTMKGLDIQKVAGTWYSLAMAASDISLLDAQSAPLRVYVEELKPTPEGDLEILLQKWENDECAQKKIIAEKTKIPAVFKIDALNENKVLVLDTDYKKYLLFCMENSAEPEQSLVCQCLVRTPEVDDEALEKFDKALKALPMHIRLSFNPTQLEEQCHI
notes: natural purified protein
B3: human alpha-lactalbumin (protein)
chain: KQFTKCELSQLLKDIDGYGGIALPELICTMFHTSGYDTQAIVENNESTEYGLFQISNKLWCKSSQVPQSRNICDISCDKFLDDDITDDIMCAKKILDIKGIDYWLAHKALCTEKLEQWLCEKL
notes: natural purified protein
B4: lactoferrin (protein, UniProt P24627 20-708, looked up)
Lactotransferrin: APRKNVRWCTISQPEWFKCRRWQWRMKKLGAPSITCVRRAFALECIRAIAEKKADAVTLDGGMVFEAGRDPYKLRPVAAEIYGTKESPQTHYYAVAVVKKGSNFQLDQLQGRKSCHTGLGRSAGWIIPMGILRPYLSWTESLEPLQGAVAKFFSASCVPCIDRQAYPNLCQLCKGEGENQCACSSREPYFGYSGAFKCLQDGAGDVAFVKETTVFENLPEKADRDQYELLCLNNSRAPVDAFKECHLAQVPSHAVVARSVDGKEDLIWKLLSKAQEKFGKNKSRSFQLFGSPPGQRDLLFKDSALGFLRIPSKVDSALYLGSRYLTTLKNLRETAEEVKARYTRVVWCAVGPEEQKKCQQWSQQSGQNVTCATASTTDDCIVLVLKGEADALNLDGGYIYTAGKCGLVPVLAENRKSSKHSSLDCVLRPTEGYLAVAVVKKANEGLTWNSLKDKKSCHTAVDRTAGWNIPMGLIVNQTGSCAFDEFFSQSCAPGADPKSRLCALCAGDDQGLDKCVPNSKEKYYGYTGAFRCLAEDVGDVAFVKNDTVWENTNGESTADWAKNLNREDFRLLCLDGTRKPVTEAQSCHLAVAPNHAVVSRSDRAAHVKQVLLHQQALFGKNGKNCPDKFCLFKSETKNLLFNDNTECLAKLGGRPTYEEYLGTEYVTAIANLKKCSTSPLLEACAFLTR
notes: natural purified protein
B5: recombinant alphaS1-casein (protein)
chain: RPKHPIKHQGLPQEVLNENLLRFFVAPFPEVFGKEKVNELSKDIGSESTEDQAMEDIKQMEAESISSSEEIVPNSVEQKHIQKEDVPSERYLGYLEQLLRLKKYKVPQLEIVPNSAEERLHSMKEGIHAQQKEPMIGVNQELAYFYPELFRQFYQLDAYPSGAWYYVPLGTQYTDAPSFSDIPNPIGSENSEKTTMPLW
notes: expressed in E. coli
B6: recombinant aS2-casein (protein)
chain: KNTMEHVSSSEESIISQETYKQEKNMAINPSKENLCSTFCKEVVRNANEEEYSIGSSSEESAEVATEEVKITVDDKHYQKALNEINQFYQKFPQYLQYLYQGPIVLNPWDQVKRNAVPITPTLNREQLSTSEENSKKTVDMESTEVFTKKTKLTEEEKNRLNFLKKISQRYQKFALPQYLKTVYQHQKAMKPWIQPKTKVIPYVRYL
notes: expressed in E. coli
B7: recombinant beta-casein (protein)
chain: B1 Beta-casein
notes: expressed in E. coli
B8: BSA_F1: recombinant fragment 1 of BSA, 190 aa, sequence in Table 1A (protein)
chain: MRGVFRRDTHKSEIAHRFKDLGEEHFKGLVLIAFSQYLQQCPFDEHVKLVNELTEFAKTCVADESHAGCEKSLHTLFGDELCKVASLRETYGDMADCCEKQEPERNECFLSHKDDSPDLPKLKPDPNTLCDEFKADEKKFWGKYLYEIARRHPYFYAPELLYYANKYNGVFQECCQAEDKGACLLPKIETMREKVLTSSHHHHHH
B9: BSA_F2: recombinant fragment 2 of BSA, 189 aa, sequence in Table 1A (protein)
chain: MARQRLRCASIQKFGERALKAWSVARLSQKEPKAEFVEVTKLVTDLTKVHKECCHGDLLECADDRADLAKYICDNQDTISSKLKECCDKPLLEKSHCIAEVEKDAIPENLPPLTADFAEDKDVCKNYQEAKDAFLGSFLYEYSRRHPEYAVSVLLRLAKEYEATLEECCAKDDPHACYSTVFDKLKHLVDEHHHHHH
B10: BSA_F3: recombinant fragment 3 of BSA, 200 aa, sequence in Table 1A (protein)
chain: MPQNLIKQNCDQFEKLGEYGFQNALIVRYTRKVPQVSTPTLVEVSRSLGKVGTRCCTKPESERMPCTEDYLSLWNRLCVLHEKTPVSEKVTKCCTESLVNRRPCFSALTPDETYVPKAFDEKLFTFHADICTLPDTEKQIKKQTALVELLKHKPKATEEQLKTVMENFVAFVDKCCAADDKEACFAVEGPKLVVSTQTALAHHHHHH

Test system: Humanized Rat Basophil Leukaemia (RBL) cells (clone RBL-703/21)
Test: human RBL assay: β-hexosaminidase release of humanized RBL cells loaded with patients' serum IgE
Type: cell-based
Conditions: percentage of 78 patients' sera triggering β-hexosaminidase release; milk components 0.3 μg/ml
Description: A scientifically approved model to test biological reactivity of molecules is induction of histamine release from human basophil granulocytes (Purohit 2005). For this purpose a rat basophil leukaemia cell line expressing the α-chain of the human FcεRI receptor (Hoffmann et al., Int Arch Allergy Immunol, Vol 126(4), p. 277-285) was used. Different milk components (n=33) including whole milk extracts from different species, milk fractions, purified natural and recombinant cow's milk proteins, and recombinant protein fragments were tested. The percentages of 78 patients whose serum IgE antibodies trigger β-hexosaminidase release of the humanized RBL cells in response to the individual milk components were determined (FIG. 3).
(§1) Sera from 78 patients who were selected according to a positive case history, positive skin-prick reactions and determination of specific IgE to cow's milk extract using the CAP-FEIA System (Phadia, Uppsala, Sweden) were used. Sera were obtained from five adults and 73 children (30 female and 43 male) from Austria, Germany, Italy, Spain and France.
Humanized Rat Basophil Leukaemia (RBL) cells (clone RBL-703/21) were incubated in microtiter plates overnight at 37° C. (7% CO2, 95% humidity) with 50 μl human sera, diluted 1:10. Afterwards cells were washed and exposed to milk components, diluted to 0.3 μg/ml protein in Tyrodes buffer containing 50% D2O and 0.1% BSA/HAS for 1 hour at 37° C. (7% CO2, 95% humidity). Spontaneous release of the cells was also evaluated. Finally, the cell supernatants were incubated with 50 μl assay solution (0.1 M citric acid or sodium citrate, pH 4.5, 160 μM 4-methyl umbelliferyl-N-acetyl-β-D-glucosaminide) in new microtiter plates at 37° C. (7% CO2, 95% humidity) for 1 h. The reactions were stopped by addition of 100 μl glycine buffer per well and the fluorescence measured at λex: 360 and λem: 465 using a fluorescence microplate reader. The specific hexosaminidase release of each sample was calculated using the formula: [(FlS−FlSp):(FlZ−FlSp)]×100 (where […] is the fluorescence of the sample; FlSp is the fluorescence of the spontaneous release and FlZ is the fluorescence of the total release).

Q: B1 was tested. Which “biological activity (% of patients)” value did it give?
A: Its value is 34.6 % of patients.

Q: How did the “biological activity (% of patients)” value turn out when B2 was run?
A: Its value is 28.2 % of patients.

Q: With B3 as the molecule, how does the “biological activity (% of patients)” value read?
A: The value was 6.4 % of patients.

Q: With B4 as the molecule, how does the “biological activity (% of patients)” value read?
A: Its value is 2.6 % of patients.

Q: Which “biological activity (% of patients)” value does the source give for B5 here?
A: Its value is 19.2 % of patients.

Q: Which “biological activity (% of patients)” value does the source give for B6 here?
A: Its value is 5.1 % of patients.

Q: With B7 as the molecule, how does the “biological activity (% of patients)” value read?
A: Its value is 10.3 % of patients.

Q: How did the “biological activity (% of patients)” value turn out when B8 was run?
A: The value was 4.3 % of patients.

Q: For B9, which “biological activity (% of patients)” value is on record?
A: Its value is 4.3 % of patients.

Q: With B10 as the molecule, how does the “biological activity (% of patients)” value read?
A: Its value is 8.5 % of patients.

Test system: serum IgE of cow's milk allergic patients
Test: IgE binding capacity (IgE reactivity) of milk components with patients' sera
Design: species or system human
Conditions: sera of cow's milk allergic patients (n=78)
Description: as §1

Q: B1 was tested. Which “IgE binding (% of patients)” value did it give?
A: The value was 44.9 % of patients.

Q: For B2, which “IgE binding (% of patients)” value is on record?
A: The value was 50.0 % of patients.

Q: B3 was tested. Which “IgE binding (% of patients)” value did it give?
A: The value was 30.8 % of patients.

Q: B4 was tested. Which “IgE binding (% of patients)” value did it give?
A: Its value is 5.1 % of patients.

Q: With B5 as the molecule, how does the “IgE binding (% of patients)” value read?
A: The value was 48.7 % of patients.

Q: With B6 as the molecule, how does the “IgE binding (% of patients)” value read?
A: Its value is 9.0 % of patients.

Q: B7 was tested. Which “IgE binding (% of patients)” value did it give?
A: Its value is 55.1 % of patients.

Q: How did the “IgE binding (% of patients)” value turn out when B8 was run?
A: Its value is 2.1 % of patients.

Q: B9 was tested. Which “IgE binding (% of patients)” value did it give?
A: The value was 8.5 % of patients.

Q: How did the “IgE binding (% of patients)” value turn out when B10 was run?
A: The value was 8.5 % of patients.
